Key:
[1] = target: T1, Recombinant human EGFR-ED (human, UniProt P00533 25-645); assay: SPR, v1323 captured by anti-human IgG, EGFR-ED injected, 1:1 Langmuir fit
T1 construct: extracellular domain; also called extracellular domain (ED) of EGFR
Procedure: (§1) The ability of v1323 comprising an EGFR binding domain to bind to the extracellular domain (ED) of EGFR was tested by Surface Plasmon Resonance (SPR) using a ProteOn XPR36 system from BIO-RAD.
(§2) Approximately 3000 RU of anti-human IgG 25 ug/ml was immobilized on a GLC chip using standard amine coupling. Exemplary SDACs were captured on the anti-human IgG immobilized chip to capture level of approximately 700 RU. Recombinant human EGFR-ED was diluted in running buffer and injected at a flow rate of 50 μl/min for 2 minutes, followed by dissociation for another 4 minutes. Sensograms were fit globally to a 1:1 Langmuir binding model. All experiments were conducted at room temperature.

[2] = target: T1, Recombinant human EGFR-ED; assay: SPR (ProteOn XPR36); v1323 captured on immobilized anti-human IgG, recombinant human EGFR-ED injected as analyte; global 1:1 Langmuir fit
Procedure: as §1, §2

- Kd [1]: 3 to 4.5 nM
- Kd [2]: 4.05 nM
- koff [2]: 0.004 s⁻¹
- kon [2]: 989000 M⁻¹ s⁻¹
B1: v1323, monovalent anti-EGFR antibody (EG2) (Fc fusion)
VHH: QVKLEESGGGLVQAGDSLRVSCAASGRDFSDYVMGWFRQAPGKEREFVAAISRNGLTTRYADSVKGRFTISRDNDKNMVYLQMNSLKPEDTAVYYCAVNSAGTYVSPRSREYDYWGQGTQVTVSS
notes: EU numbering; no light chain, no CH1; also called exemplary heteromultimer; not shown: hinge/linker between the VhH and the Fc (not described), and with it the heterodimer Fc carrier, left out of the chains

Source: patent US20160257763A1 (Zymeworks, published 2016)
